{
  "source": "paper PMC4931990",
  "molecular_target": "KDM2B/FBXL10 (UniProt Q8NHM5)",
  "experiment": "co-IP, western blot",
  "settings": "reference: wild type, EGF-treated; sites S374",
  "data": [
    {"substance": "c-Fos (from UniProt P01100) S374A, EGF-treated", "values": [
      {"measurement": "binding against the reference", "value": "stronger"}
    ]}
  ]
}
